# Experimental data from patent US20150306011.
# Target: histone H3 (acid extracted histones from untreated HeLa cells), P68431
protein,measurement,value
PCAF histone acetylase enzyme (protein) MLEEEVYSQNSPIWDQDFLSASSRTSQLGIQTVINPPPVAGTISYNSTSSSLEQPNAGSSSPACKASSGLEANPGEKRKMTDSHVLEEAKKPRVMGDIPMELINEVMSTITDPAAMLGPETNFLSAHSARDEAARLEERRGVIEFHVVGNSLNQKPNKKILMWLVGLQNVFSHQLPRMPKEYITRLVFDPKHKTLALIKDGRVIGGICFRMFPSQGFTEIVFCAVTSNEQVKGYGTHLMNHLKEYHIKHDILNFLTYADEYAIGYFKKQGFSKEIKIPKTKYVGYIKDYEGATLMGCELNPRIPYTE,"histone H3 acetylation in PCAF HAT reaction (immunoblot, diacetylated H3 Ac-Lys9+Ac-Lys14)",35-fold increase
